The test system of data set [1] is healthy evaluators. To be noted: 1% sucrose solution used as minimum concentration at which sweetness is felt; cited from earlier work.
For data set [2] the following is noted: cited from earlier work; for sweetness relative to sucrose of the same weight: calculated by weight, prior art; for sweetness delay: prior art CN 102498126 A.
Data set [3] relates to healthy evaluators. Nature of the data set: Determination of sweetness threshold by human sensory evaluation. The class given is in vivo. To be noted: for Sweetness fold relative to 1% sucrose: =10000/(sample sweetness threshold); for Concentration (μg/mL) corresponding to threshold: sweetness threshold, protein diluted with mineral water (pH 6.9), averaged for 10 individuals. The method, then:
Since the recombinant Brazzein of the present disclosure is not a sugar-based compound, it is impossible to measure the sweetness by using a saccharometer. Therefore, the sweetness threshold is measured using human sensory evaluation. For most people, the sweetness threshold for sugar in soft drinks is 0.32%-1.0%. To assess the sweetness threshold for each solution, an 1% sucrose solution is used as the solution with minimum concentration at which sweetness is felt, i.e., the sweetness threshold is 10000 μg/mL The sweetness potency of the Brazzein described herein relative to sucrose is generally in a range of 1:500 to 1:16,000. The samples tested included naturally extracted Brazzein (homemade, about 95% pure), recombinant Brazzein and mutants thereof, sucrose and mineral water. The protein was diluted in a gradient from 0.5 to 20 μg/ml by diluting the dry protein powder with mineral water (pH 6.9). Ten healthy evaluators (five males and five females) aged between 30 and 50 participated in the assessment, five of whom were trained wine tasters. Tasting started at the lowest concentration, with concentration increased by 1 μg/ml each time until sweetness was felt; then based on this concentration, the concentration was reduced by 0.1 μg/ml at a time until sweetness was not felt; and the sweetness threshold of the sample was determined by gradually decreasing the concentration gradient in such a way. 20 ml of samples were tested randomly compared to sugar solutions. Before each analysis, the evaluator was asked to rinse his/her mouth with water and eat the neutral crackers until there was no residual taste. The test solution was held in oral cavity for at least 10 seconds. Thereafter, evaluators provided scores against samples on the basis of their responses between 0 and 10; 0—no sweet feeling, 10—highly sweet. The final results for each protein were averaged for 10 individuals. The sweetness factor of Brazzein and mutants thereof relative to 1% sucrose=10000/(sample sweetness threshold).

For data set [4] the following is noted: aqueous solution, 80° C. for 4 hours; cited from earlier work.

Numbering of substitutions follows the chain as printed. Where two headings read alike, the source gives them in different places.

Results on 13 molecules are retold here after patent US20260209285A1, “SWEET-TASTING PROTEIN BRAZZEIN MUTANT HAVING HIGH SWEETNESS AND PREPARATION METHOD THEREFOR” (NANJING BESTZYME BIO-ENGINEERING CO., LTD., priority 2022, published 2026).

For `OC[C@H]1O[C@@](CO)(O[C@H]2O[C@H](CO)[C@@H](O)[C@H](O)[C@H]2O)[C@@H](O)[C@@H]1O` [sucrose], the “sweetness threshold of sucrose (reference)” value with healthy evaluators [1] is 10000 µg/mL.

On to Brazzein, for which the “sweetness relative to sucrose of the same weight” value is recorded as 510 times in data set [2] (listed as Brazzein expressed in an Aspergillus oryzae host in patent CN102498126A) and “about 510 times” in data set [2] (listed as expressed Brazzein). In addition, the figures for the sweetness delay entry in data set [2] and in data set [2] (listed as expressed Brazzein) were “about 1.5 seconds” and “obvious sweetness delay”, respectively.

Turning to “Brazzein (QDKCKKVYENYPVSKCQLANQCNYDCKLDKHARSGECFYDEKRNLQCICDYCEY; UniProt P56552 1-54, looked up) [Naturally extracted Brazzein, naturally extracted Brazzein (homemade, about 95% pure), reference compound]”, in the data set with healthy evaluators [3], the “Sweetness fold relative to 1% sucrose” value turned out to be 501 fold and the “Concentration (μg/mL) corresponding to threshold” value (“Concentration” for short) came to 20 ± 3.9 µg/mL.

Turning to “Brazzein [Brazzein expressed by Pichia pastoris]”, in data set [2], the “sweetness relative to sucrose of the same weight” value is 40 times.

In the case of “Brazzein [Brazzein] (DKCKKVYENYPVSKCQLANQCNYDCKLDKHARSGECFYDEKRNLQCICDYCEY; listed as Pentadiplandra brazzeana) [sweet protein extracted from fruits of Pentadiplandra brazzeana (Baillon), 54 amino acids, 6.5 kDa]”, the “sweetness after heat treatment” value in data set [4] was “remains sweet”.

B1: ROLpro-BXT-D1: BXT-D1 expressed fused to leader peptide ROLpro, SEQ ID NO: 21; leader removed by cleavage (protein)
chain: DDNLVGGMTLDLPSDAPPISLSSSTNSAVALEKRDKCKKVYENYPVSKCQLANQCNYDCKLDKHARSGDCFYDAKRNLQCICDYCEY
modifications: ROLpro leader removed by cleavage
B1: in the data set on healthy evaluators [3], the “Sweetness fold relative to 1% sucrose” value was found to be 6666.7 fold and the “Concentration” value was found to be 1.5 ± 0.3 µg/mL.

B2: ROLpro-BXT-D6: BXT-D6 expressed fused to leader peptide ROLpro, SEQ ID NO: 31; leader removed by cleavage (protein)
chain: B1 chain with H64R, A74K
modifications: ROLpro leader removed by cleavage
Consider B2, for which, in the data set on healthy evaluators [3], the “Sweetness fold relative to 1% sucrose” value is reported as 16666.7 fold and the “Concentration” value came to 0.6 ± 0.1 µg/mL.

B3: ROLpro-BXT: Brazzein BXT expressed fused to Rhizopus oryzae lipase leader peptide ROLpro with kex2 site, SEQ ID NO: 19; leader removed by cleavage (protein)
chain: B1 chain with D69E, A74E
modifications: ROLpro leader removed by kex2 cleavage
Regarding B3, in the data set on healthy evaluators [3], the “Sweetness fold relative to 1% sucrose” value was determined as 613.5 fold and the “Concentration” value came out at 16.3 ± 2.9 µg/mL.

B4: ROLpro-BXT-D7: BXT-D7 expressed fused to leader peptide ROLpro, SEQ ID NO: 33; leader removed by cleavage (protein)
chain: B1 chain with H64R, A74R
modifications: ROLpro leader removed by cleavage
B4: in the data set on healthy evaluators [3], the “Sweetness fold relative to 1% sucrose” value is given as 16666.7 fold and the “Concentration” value was 0.6 ± 0.1 µg/mL.

B5: ROLpro-BXT-D2: BXT-D2 expressed fused to leader peptide ROLpro, SEQ ID NO: 23; leader removed by cleavage (protein)
chain: B1 chain with A74D
modifications: ROLpro leader removed by cleavage
Consider B5, for which, in the data set with healthy evaluators [3], the “Sweetness fold relative to 1% sucrose” value amounted to 3703.7 fold and the “Concentration” value came out at 2.7 ± 0.5 µg/mL.

B6: ROLpro-BXT-D3: BXT-D3 expressed fused to leader peptide ROLpro, SEQ ID NO: 25; leader removed by cleavage (protein)
chain: B1 chain with A74K
modifications: ROLpro leader removed by cleavage
Regarding B6, in the data set on healthy evaluators [3], the “Sweetness fold relative to 1% sucrose” value stood at 6250 fold and the “Concentration” value amounted to 1.6 ± 0.3 µg/mL.

B7: ROLpro-BXT-D4: BXT-D4 expressed fused to leader peptide ROLpro, SEQ ID NO: 27; leader removed by cleavage (protein)
chain: B1 chain with A74R
modifications: ROLpro leader removed by cleavage
As for B7, in the data set with healthy evaluators [3], the “Sweetness fold relative to 1% sucrose” value is 8333.3 fold and the “Concentration” value was found to be 1.2 ± 0.2 µg/mL.

B8: ROLpro-BXT-D5: BXT-D5 expressed fused to leader peptide ROLpro, SEQ ID NO: 29; leader removed by cleavage (protein)
chain: B1 chain with H64R
modifications: ROLpro leader removed by cleavage
For the molecule B8, in the data set on healthy evaluators [3], the “Sweetness fold relative to 1% sucrose” value came out at 8333.3 fold and the “Concentration” value is 1.2 ± 0.2 µg/mL.
